Ends that are not written are not given here.
Key:
[1] = test system: SecA-Cys-190; assay: Specificity control: scrambled SP22 binding/FRET; parameters: species or system Escherichia coli; conditions: 7 μM IAEDANS-labeled SecA-Cys-190, 18 μM IANBD-labeled scrambled SP22; data not shown
[2] = molecular target: IANBD-labeled alkaline phosphatase signal peptide SP22 (E. coli); assay: fluorescence polarisation
[3] = molecular target: SecAΔ11-Cys-190 (Escherichia coli, UniProt P10408, C885S/C887S/C896S/C98S/N190C); assay: Binding of SP22 to monomeric SecAΔ11-Cys-190 by FRET titration
[4] = molecular target: SecA-Cys-256 (Escherichia coli, UniProt P10408, C885S/C887S/C896S/C98S/T256C); assay: Signal peptide binding to SecA-Cys-256 by fluorescence anisotropy
[5] = molecular target: IAEDANS-labeled SecAΔ11-Cys-190 (E. coli) (UniProt P10408)
[6] = molecular target: LamB signal peptide signal peptide (Escherichia coli) (UniProt P02943); conditions: cited from earlier work
[7] = molecular target: T1, wild-type SecA (Escherichia coli SecA ATPase) (E. coli, UniProt P10408 9-836); assay: fluorescence polarisation
[8] = molecular target: T1, wild-type SecA (Escherichia coli SecA …); assay: fluorescence polarisation; remark: listed apart in the source

PLMDTEITLKFLSPLQALKTVC-NH2 [scrambled SP22]
high-affinity binding and FRET [1]: neither high-affinity binding nor FRET was detected

SecA-Cys-256 (unlabeled) (from UniProt P10408 9-836) (natural protein)
Kd [2]: 1100 nM

MKQSTIALALLPLLFTPVTKAC-NH2 [SP22]
Kd [3]: 3060 ± 1130 nM | Kd [4]: 1100 ± 200 nM

IAEDANS-labeled SecAΔ11-Cys-190 (from UniProt P10408 9-836) (natural protein)
Kd [5]: 230 nM

SecA (from UniProt P10408)
Kd [6]: 100000 nM

MKQSTIALALLPLLFTPVTKAC(IANBD)-NH2 [IANBD-labeled alkaline phosphatase signal peptide SP22]
stoichiometry N [7]: 1 mole ratio of signal peptide to SecA | Kd [8]: 1400 ± 200 nM
